Results reported in patent US20140322130A1 (published 2014).
Where no end group is shown, it is not given here.

Target: T1, 15N-labelled recombinant EGFR287-302 peptide with methionine mutated to leucine (human, also: 15N-labelled, oxidized)
T1 construct: cleaved from an SH2 fusion with CNBr; also called 15N-labelled peptide
T1 peptide: CGADSYELEEDGVRKC
Experiment: NMR, 15N HSQC

binding result: binds
B1: Fab fragment of mAb806 (Fab, V domains shown)
VH: DVQLQESGPSLVKPSQSLSLTCTVTGYSITSDFAWNWIRQFPGNKLEWMGYISYSGNTRYNPSLKSRISITRDTSKNQFFLQLNSVTIEDTATYYCVTAGRGFPYWGQGTLVTVSA
VL: DILMTQSPSSMSVSLGDTVSITCHSSQDINSNIGWLQQRPGKSFKGLIYHGTNLDDEVPSRFSGSGSGADYSLTISSLESEDFADYYCVQYAQFPWTFGGGTKLEIKR
notes: papain Fab of the intact mAb; also called Fab806
